The subject of this data set is PKGIα Cys42 interchain disulfide bond. The experiment in a line: Dihydrolipoic acid/lipoic acid redox titration of recombinant PKGIα, disulfide dimerization by SDS-PAGE. It counts as physicochemical. The settings on record: in vitro, unpublished data. The source says: PhD thesis (2015) by Daniel Stubbert from this lab. We have amended the manuscript so that it now states that the PKGIα Cys42 disulfide bond is reversible and referenced the literature detailing the auranofin experiments described above:
“Reactive oxygen species (ROS) promote formation of a reversible intermolecular disulfide bond between the two subunits of the PKGIα homodimer at Cys424,5.”
Furthermore, in relation to reversibility, we also have unpublished data relating to the thermodynamic stability of the Cys42 interchain disulfide bond in vitro. We have performed a dihydrolipoic acid/lipoic acid redox titration with recombinant PKGIα and analysed the amount of disulfide dimerization by SDS-PAGE. The equilibrium redox potential was determined as approximately −280 mV; a value within the conﬁnes of the cellular redox potenƟal which ranges from ~−350 to –150 mV depending on e.g. the organelle an d stage of the cell cycle (Jones, D. P.
Journal of Internal Medicine 268, 432-448 (2010); Jones, D. P. American Journal of Physiology - Cell […]
consistent with our findings from tissue and cells, and arguably ex actly what would be expected of a protein that is required to rapidly transduce an oxidant signal into a biological response.
--What are the consequences of cys42 oxidation for cGMP activation of PKG? […]

B1: PKGIα: recombinant PKGIα; Cys42 interchain disulfide bond (protein)
chain: MSELEEDFAKILMLKEERIKELEKRLSEKEEEIQELKRKLHKCQSVLPVPSTHIGPRTTRAQGISAEPQTYRSFHDLRQAFRKFTKSERSKDLIKEAILDNDFMKNLELSQIQEIVDCMYPVEYGKDSCIIKEGDVGSLVYVMEDGKVEVTKEGVKLCTMGPGKVFGELAILYNCTRTATVKTLVNVKLWAIDRQCFQTIMMRTGLIKHTEYMEFLKSVPTFQSLPEEILSKLADVLEETHYENGEYIIRQGARGDTFFIISKGTVNVTREDSPSEDPVFLRTLGKGDWFGEKALQGEDVRTANVIAAEAVTCLVIDRDSFKHLIGGLDDVSNKAYEDAEAKAKYEAEAAFFANLKLSDFNIIDTLGVGGFGRVELVQLKSEESKTFAMKILKKRHIVDTRQQEHIRSEKQIMQGAHSDFIVRLYRTFKDSKYLYMLMEACLGGELWTILRDRGSFEDSTTRFYTACVVEAFAYLHSKGIIYRDLKPENLILDHRGYAKLVDFGFAKKIGFGKKTWTFCGTPEYVAPEIILNKGHDISADYWSLGILMYELLTGSPPFSGPDPMKTYNIILRGIDMIEFPKKIAKNAANLIKKLCRDNPSERLGNLKNGVKDIQKHKWFEGFNWEGLRKGTLTPPIIPSVASPTDTSNFDSFPEDNDEPPPDDNSGWDIDF
modifications: intermolecular disulfide bond at Cys42 between the two subunits
Take B1: the “equilibrium redox potential of the Cys42 interchain disulfide bond” value is recorded as “approximately −280 mV”.

These data come from article PMC5095173, “Disulfide-activated protein kinase G Iα regulates cardiac diastolic relaxation and fine-tunes the Frank–Starling response” (Nature Communications, 2016).
